Residue numbers refer to the chain shown, from its start. Names and notes keep the numbering of the source. Blank lines part the entries; values can stand above or below the binder they belong to.
Experiments:
rHuman ErbB2/Fc Chimera [1] = target: T1, rHuman ErbB2/Fc Chimera (human, UniProt P04626 23-652); assay: ECL Multispot (MSD) assay, antigens spotted on plate, 10 nM Fab; blank of this well 184
T1 construct: Bought from R&D Systems; not shown: Fc part of a bought chimera

[2] = target: T2, rHuman IGF-1 sR (insulin-like growth factor-1 soluble receptor) (human, UniProt P08069 31-932); assay: as above
T2 construct: Bought soluble receptor

[3] = target: T3, rHuman HGF R/c-MET/Fc Chimera (human, UniProt P08581 25-932); assay: as above
T3 construct: Bought from R&D Systems; also called HGF R/Fc; not shown: Fc part of a bought chimera
T3 sequence (P08581 25-932, change not shown): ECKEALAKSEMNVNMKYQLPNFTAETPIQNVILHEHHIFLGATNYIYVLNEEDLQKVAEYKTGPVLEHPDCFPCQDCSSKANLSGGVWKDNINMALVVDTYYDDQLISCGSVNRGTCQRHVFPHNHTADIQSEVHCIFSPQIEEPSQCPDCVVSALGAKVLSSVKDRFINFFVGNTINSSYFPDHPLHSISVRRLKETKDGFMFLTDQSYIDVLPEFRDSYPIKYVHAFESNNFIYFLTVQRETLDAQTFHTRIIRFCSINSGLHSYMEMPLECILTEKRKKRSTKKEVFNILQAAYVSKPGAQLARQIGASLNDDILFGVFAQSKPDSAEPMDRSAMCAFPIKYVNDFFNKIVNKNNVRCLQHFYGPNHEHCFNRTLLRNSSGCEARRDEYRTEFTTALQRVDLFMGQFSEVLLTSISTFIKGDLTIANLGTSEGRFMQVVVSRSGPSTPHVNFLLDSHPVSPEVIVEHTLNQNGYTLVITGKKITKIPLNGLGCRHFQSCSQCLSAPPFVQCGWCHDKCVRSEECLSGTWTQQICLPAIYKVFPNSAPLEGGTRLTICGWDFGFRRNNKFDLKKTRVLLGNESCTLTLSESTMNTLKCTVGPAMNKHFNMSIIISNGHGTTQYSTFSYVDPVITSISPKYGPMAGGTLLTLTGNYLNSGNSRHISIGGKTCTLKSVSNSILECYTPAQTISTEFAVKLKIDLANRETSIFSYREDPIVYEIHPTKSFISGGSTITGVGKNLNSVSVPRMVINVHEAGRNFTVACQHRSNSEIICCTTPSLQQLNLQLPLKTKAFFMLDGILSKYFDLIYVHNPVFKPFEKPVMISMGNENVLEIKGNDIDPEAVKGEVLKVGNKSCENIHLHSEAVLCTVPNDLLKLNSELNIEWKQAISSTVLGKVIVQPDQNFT

[4] = target: T4, Recombinant Human DLL4 (delta-like protein 4) (human, UniProt Q9NR61 27-524); assay: as above
T4 construct: Bought recombinant protein; also called rHuman DLL4

rHuman EGF R/Fc Chimera [5] = target: T5, rHuman EGF R/Fc Chimera (human, UniProt P00533 25-645); assay: as above
T5 construct: Bought from R&D Systems; not shown: Fc part of a bought chimera

[6] = target: T6, rHuman P-Cadherin/Fc Chimera (human, UniProt P22223 108-654); assay: as above
T6 construct: Bought from R&D Systems; not shown: Fc part of a bought chimera

rHuman ErbB2/Fc Chimera [7] = target: T1, rHuman ErbB2/Fc Chimera; assay: ECL Multispot (MSD) assay, antigens spotted on plate, 10 nM Fab; blank of this well 254
[8] = target: T2, rHuman IGF-1 sR (insulin-like growth …); assay: as above
[9] = target: T3, rHuman HGF R/c-MET/Fc Chimera; assay: as above
[10] = target: T4, Recombinant Human DLL4 (delta-like …); assay: as above
rHuman EGF R/Fc Chimera [11] = target: T5, rHuman EGF R/Fc Chimera; assay: as above
[12] = target: T6, rHuman P-Cadherin/Fc Chimera; assay: as above
[13] = target: T7, rHuman CD44/Fc Chimera, CF (R&D Systems Cat#3660-CD) (human, UniProt P16070 21-220); assay: ECL multispot (MSD), antigen spotted; blank spot of this well 271
T7 construct: Bought protein

[14] = target: T8, rHuman P-Cadherin/Fc Chimera, CF (R&D Systems Cat#861-PC) (human, UniProt P22223 108-654); assay: as above
T8 construct: Bought protein

[15] = target: T9, rHuman EGF R/Fc Chimera, CF (R&D Systems Cat#344-ER) (human, UniProt P00533 25-645); assay: as above
T9 construct: Bought protein; also called epidermal growth factor receptor

[16] = target: T10, Recombinant Human DLL4 (R&D Systems Cat#1506-D4/CF) (human, UniProt Q9NR61 27-524); assay: as above
T10 construct: Bought recombinant protein; also called delta-like protein 4; rHuman DLL4

[17] = target: T11, rHuman Erythropoietin R/Fc Chimera, CF (R&D Systems Cat#963-ER) (human, UniProt P19235 25-250); assay: as above
T11 construct: Bought protein; also called EPO R; EPO R/Fc
T11 sequence (looked up): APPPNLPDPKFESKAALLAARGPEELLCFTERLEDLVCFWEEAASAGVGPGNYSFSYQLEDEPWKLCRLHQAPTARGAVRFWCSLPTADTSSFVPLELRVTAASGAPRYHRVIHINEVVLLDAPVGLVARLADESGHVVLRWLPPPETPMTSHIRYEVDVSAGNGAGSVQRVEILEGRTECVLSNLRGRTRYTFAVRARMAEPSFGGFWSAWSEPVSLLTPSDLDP

[18] = target: T12, rHuman HGF R/c-MET/Fc Chimera, CF (R&D Systems Cat#358-MT/CF) (human, UniProt P08581 25-932); assay: as above
T12 construct: Bought protein; also called HGF R/Fc; hepatocyte growth factor receptor
T12 sequence (P08581 25-932, change not shown): as the sequence (P08581 25-932, change not shown) above

[19] = target: T13, rHuman IGF-1 sR, CF (R&D Systems Cat#391-GR) (human, UniProt P08069 31-932); assay: as above
T13 construct: Bought soluble receptor; also called insulin-like growth factor-1 soluble receptor

[20] = target: T14, rHuman Notch-1/Fc Chimera, CF (R&D Systems Cat#3647-TK) (human, UniProt P46531 19-526); assay: as above
T14 construct: Bought protein

[21] = target: T15, rHuman ErbB2/Fc Chimera, CF (R&D Systems Cat#1129-ER) (human, UniProt P04626 23-652); assay: as above
T15 construct: Bought protein; also called human epidermal growth factor 2 receptor

Recombinant Human DLL4 [22] = target: T16, Recombinant Human DLL4 (human, UniProt Q9NR61 27-524); assay: ECL (MSD) multispot binding assay, DLL4 spotted on plate, Fab in solution
T16 construct: also called delta-like protein 4; rHuman DLL4

Recombinant Human DLL4 [23] = target: T16, Recombinant Human DLL4; assay: ECL (MSD) multispot binding assay, DLL4 signal over blank spot
[24] = target: T7, rHuman CD44/Fc Chimera, CF (R&D Systems …); assay: ECL multispot (MSD), antigen spotted; blank spot of this well 209
[25] = target: T8, rHuman P-Cadherin/Fc Chimera, CF (R&D …); assay: as above
[26] = target: T9, rHuman EGF R/Fc Chimera, CF (R&D …); assay: as above
[27] = target: T11, rHuman Erythropoietin R/Fc Chimera, CF …; assay: as above
[28] = target: T12, rHuman HGF R/c-MET/Fc Chimera, CF (R&D …); assay: as above
[29] = target: T13, rHuman IGF-1 sR, CF (R&D Systems …); assay: as above
[30] = target: T14, rHuman Notch-1/Fc Chimera, CF (R&D …); assay: as above
[31] = target: T15, rHuman ErbB2/Fc Chimera, CF (R&D …); assay: as above
[32] = target: T7, rHuman CD44/Fc Chimera, CF (R&D Systems …); assay: ECL multispot (MSD), antigen spotted; blank spot of this well 273
[33] = target: T8, rHuman P-Cadherin/Fc Chimera, CF (R&D …); assay: as above
[34] = target: T9, rHuman EGF R/Fc Chimera, CF (R&D …); assay: as above
[35] = target: T11, rHuman Erythropoietin R/Fc Chimera, CF …; assay: as above
[36] = target: T12, rHuman HGF R/c-MET/Fc Chimera, CF (R&D …); assay: as above
[37] = target: T13, rHuman IGF-1 sR, CF (R&D Systems …); assay: as above
[38] = target: T14, rHuman Notch-1/Fc Chimera, CF (R&D …); assay: as above
[39] = target: T15, rHuman ErbB2/Fc Chimera, CF (R&D …); assay: as above

ECL signal (rHuman ErbB2/Fc Chimera [1]): 322 | ECL signal [2]: 173 | ECL signal [3]: 263 | ECL signal [4]: 132000 | ECL signal (rHuman EGF R/Fc Chimera [5]): 409 | ECL signal [6]: 240 | ECL signal (rHuman ErbB2/Fc Chimera [7]): 351 | ECL signal [8]: 306 | ECL signal [9]: 176 | ECL signal [10]: 148000 | ECL signal (rHuman EGF R/Fc Chimera [11]): 209 | ECL signal [12]: 138
B1: Fab VH1-46_IGHD6-6*01_IGHJ1*01 S102A/S103P/S104F/H111F & L6_IGKJ1*01 (Fab, V domains shown)
VH: QVQLVQSGAEVKKPGASVKVSCKASGYTFTSYYMHWVRQAPGQGLEWMGIINPSGGSTSYAQKFQGRVTMTRDTSTSTVYMELSSLRSEDTAVYYCAREEYAPFSAEYFQFWGQGTLVTVSS
VL: not shown
notes: Fab made in E. coli; VH was cloned into Plasmid A (CH1, His6 and Flag tags) and VL into Plasmid C (kappa constant region); also called APFF; H:APFF & L:wt

ECL signal [13]: 252 | ECL signal [14]: 296 | ECL signal [15]: 216 | ECL signal [16]: 1280 | ECL signal [17]: 275 | ECL signal [18]: 273 | ECL signal [19]: 199 | ECL signal [20]: 228 | ECL signal [21]: 333
B2: Fab VH1-46_IGHD6-6*01_IGHJ1*01 S102A/S103P/S104F (APF) & L6_IGKJ1*01 R91P (Fab, V domains shown)
VH: B1 VH with F111H
VL: EIVLTQSPATLSLSPGERATLSCRASQSVSSYLAWYQQKPGQAPRLLIYDASNRATGIPARFSGSGSGTDFTLTISSLEPEDFAVYYCQQPSNWPPWTFGQGTKVEIKR
notes: Fab made in E. coli: VH cloned into Plasmid A (CH1, His6 and Flag tags), VL into Plasmid C (kappa CL); also called APF / R91P

ECL signal (Recombinant Human DLL4 [22]): 54100 | Signal/Blank (Recombinant Human DLL4 [23]): 194
B3: Fab VH1-46_IGHD6-6*01_IGHJ1*01 S102A/S103P/S104F/H111F (APFF) & L6_IGKJ1*01 S92T (Fab, V domains shown)
VH: B1 VH
VL: B2 VL with P91R, S92T
notes: Fab from E. coli; VH in Plasmid A (CH1, His6 and Flag tags), VL in Plasmid C (kappa CL); also called APFF & S92T

ECL signal [24]: 163 | ECL signal [25]: 235 | ECL signal [26]: 271 | ECL signal [27]: 306 | ECL signal [28]: 239 | ECL signal [29]: 260 | ECL signal [30]: 170 | ECL signal [31]: 236
B4: Fab VH1-46_IGHD6-6*01_IGHJ1*01 S102A/S103P/S104F (APF) & L6_IGKJ1*01 R91G (Fab, V domains shown)
VH: B1 VH with F111H
VL: B2 VL with P91G
notes: Fab made in E. coli: VH cloned into Plasmid A (CH1, His6 and Flag tags), VL into Plasmid C (kappa CL); also called APF / R91G

ECL signal [32]: 236 | ECL signal [33]: 437 | ECL signal [34]: 367 | ECL signal [35]: 459 | ECL signal [36]: 255 | ECL signal [37]: 382 | ECL signal [38]: 383 | ECL signal [39]: 526
B5: Fab VH1-46_IGHD6-6*01_IGHJ1*01 S102A/S103P/S104F (APF) & L6_IGKJ1*01 R91L (Fab, V domains shown)
VH: B1 VH with F111H
VL: B2 VL with P91L
notes: Fab made in E. coli: VH cloned into Plasmid A (CH1, His6 and Flag tags), VL into Plasmid C (kappa CL); also called APF / R91L

— patent US20120316071A1 (published 2012)
